Test results published in patent publication US20240002516A1 (4B TECHNOLOGIES SUZHOU, published 2024).
Residue numbers refer to the chain shown, from its start. Like-named read-outs stand apart in the source and are kept apart here.

B1: control antibody pAb01 (antibody, V domains shown)
VH: EVQLVESGGGLVKPGGSLRLSCAASGFTFSGVSINWVRQAPGKGLEWVSSETTSSGTIYYADSVKGRFTISRDNAKNSLYLQMNSLRAEDTAVYYCARSYYYGMDVWGQGTTVTVS
VL: DIVMTQTPLSSPVTLGQPASISCRSSQSLVHRNGNTYLSWLQQRPGQPPRLLIYKISNRFSGVPDRFSGSGAGTDFTLKISRVEAEDVGVYYCMQARQFPLTFGGGTKVEIK
B2: PHD49-01 (humanized muPHD49) (antibody, human IgG4, V domains shown)
VH: QVQLVQSGAEVKKPGSSVKVSCKASGYTFSSYWMQWVRQAPGQGLEWIGAIYPGDDDTIYTQKFKGRATLTADKSTSTAYMELSSLRSEDTAVYYCARNYDYQAWFAYWGQGTLVTVSS
VL: DIQMTQSPSSLSASVGDRVTITCSASSSVSYMYWYQQKPGKAPKPWIYLTSNLASGVPSRFSGSGSGTDYTLTISSLQPEDFATYYCQQWSSNPLTFGQGTKLEIK
B3: PHD48-01 (humanized muPHD48) (antibody, human IgG4, V domains shown)
VH: QVQLVQSGAEVKKPGASVKVSCKASGYSFTTYWMHWVRQAPGQGLEWIGTIYPGNSDSSNNQKFKGRATLTADTSTSTAYMELSSLRSEDTAVYYCTRFYYEDWYFDVWGQGTMVTVSS
VL: B2 VL with Y35F, L49R, W90Y, S91H, N93Y, L95P, Q99G, L103V
B4: muPHD49 (antibody, V domains shown)
VH: QVQLQQSGAELARPGASVKLSCKASGYTFSSYWMQWVKQRPGQGLEWIGAIYPGDDDTIYTQKFKGKATLTADKSSSTAYMQLSSLASEDSAVYYCARNYDYQAWFAYWGQGTLVTVSA
VL: QIVLTQSPALMSASPGEKVTMTCSASSSVSYMYWYQQKPRSSPKPWIYLTSNLASGVPARFSGSGSGTSYSLTISSMEAEDAATYYCQQWSSNPLTFGAGTKLELK
notes: Mouse hybridoma monoclonal antibody; also called muPHID49
B5: chi-PHD49 (antibody, V domains shown)
VH: B4 VH
VL: B4 VL
notes: Chimeric: human IgG4 / human kappa constant regions (pCDNA3.4-hIgG4 and pCDNA3.4-hKappa vectors)
B6: chi-PHD48 (the chimeric antibody derived from muPHD48) (antibody, V domains shown)
VH: EVQLQQSGTVLARPGASVKMSCKASGYSFTTYWMHWVKQRPGQGLEWIGTIYPGNSDSSNNQKFKGKAKLTAVTSASTAYMELSSLTNEDSAVYYCTRFYYEDWYFDVWGAGTTVTVSS
VL: QIVLTQSPAIMSASPGEKVTISCSASSSVSYMYWFQQKPGSSPKPWIYRTSNLASGVPARFSGSGSGTSYSLTISSMEAEDAATYYCQQYHSYPPTFGGGTKLEIK
notes: Chimeric: VH in the pCDNA3.4-hIgG4 vector and VL in the pCDNA3.4-hKappa vector (human IgG4 / human kappa constant regions)

How the values were obtained:
[1] = biological target: T1, extracellular domain (ECD) of human TrkA protein, N-terminal flag tag and C-terminal His tag (PHA) (human, UniProt P04629 33-423); assay: BLI (Octet Red384), His-tagged TrkA ECD captured on Anti-Penta-HIS (HIS1K) biosensor, pAb01 as second antibody (90 s) after PHD48
T1 construct: Made in 293-F cells and purified by IMAC; also called TrkA ECD protein; TrkA (ECD); not shown: flag tag at the N-terminus (after the signal peptide); His tag at the C-terminus

[2] = biological target: T2, human TrkA on CellSensor TrkA-NFAT-bla CHO-K1 cells (human, UniProt P04629 33-796); assay: cell-based or functional assay
[3] = biological target: T2, human TrkA on CellSensor TrkA-NFAT-bla …; assay: cell-based or functional assay; remark: listed apart in the source
[4] = biological target: T2, human TrkA on CellSensor TrkA-NFAT-bla …; assay: FACS on cells expressing human TrkA (FIG. 5A)
[5] = biological target: T1, extracellular domain (ECD) of human …; assay: BLI (Octet Red384), antibody captured on anti-human Fc AHQ tips, antigen 100 nM
Method: (§1) The bio-layer interferometry (BLI) method was used to determine the affinities of the antibodies, employing Octet Red384. Briefly, anti-human Fc-coated biosensor AHQ tips (ForteBio) were put into PBS with 0.1% w/v bovine serum albumin and 0.05% Tween-20 for a minimum of 10 min in the pre-wetting plate. The purified antibodies (100 nM in PBS with 0.1% bovine serum albumin and 0.05% Tween-20 (assay buffer)) were captured on AHQ biosensors (ForteBio) at a level of about 1 nm. The loaded biosensors were washed with an assay buffer to remove any unbound protein. Then, the association rates, dissociation rates and response were measured, using an antigen of 100 nM (in PBS with 0.1% bovine serum albumin and 0.05% Tween-20).

[6] = biological target: T2, human TrkA on CellSensor TrkA-NFAT-bla …; assay: cell-based or functional assay; remark: listed apart in the source
[7] = biological target: T1, extracellular domain (ECD) of human …; assay: BLI (Octet Red384), as in Example 4
Method: as §1
Two rounds of humanizations were further performed. […] In the second round, many other variants were further constructed (including several mutations in the CDR sequences). Quickchange based site-directed mutagenesis or overlap PCR were performed to create expression plasmid of new versions of 2nd round humanized antibodies. All recombinant antibodies were expressed and purified as described in Example 1, then measured antigen binding affinity using BLI technology with the Octet Red384 instrument as mentioned above. To compare the functional activity of humanized antibodies with chimeric antibodies, NFAT assay was also performed.

[8] = biological target: T2, human TrkA on CellSensor TrkA-NFAT-bla …; assay: FACS on cells expressing human TrkA (FIG. 4A)
[9] = biological target: T1, extracellular domain (ECD) of human …; assay: SPR (BIAcore T200), antibody on protein G chip, PHA 0.625-20 nM injected
Method: The binding kinetics and affinities of the humanized antibodies were determined using a BIAcoreT200™ SPR system. Approximately 30 RU of the humanized antibody was immobilized on a protein G sensor chip and serial 2-fold dilutions of the PHA (0.625-20 nM) in 1×HBS-EP+ buffer were injected over the antibody-bound surface at a flow rate of 30 μl/min.

[10] = biological target: T1, extracellular domain (ECD) of human …; assay: indirect ELISA on coated PHA (human TrkA ECD, 1 ug/mL), anti-mouse IgG-HRP, OD450
Method: Hybridoma supernatants were initially screened with human TrkA by indirect ELISA. Briefly, purified PHA was diluted to a final concentration of 1 μg/mL in PBS buffer. 100 μL of the diluted antigen was added to each well of a 96-well plate, and incubated at 4° C. overnight. The plates were washed with PBST (PBS comprising 0.05% Tween-20, pH 7.4) for three times, then 200 μl/well of 2% bovine serum albumin (BSA) diluted in PBST was added and incubated at room temperature for 2 hours for blocking. The blocking solution was removed, and the plate was washed 3 times with 300 μl PBST. The diluted solutions of primary and secondary antibodies, along with substrate solution was prepared. 100 μl of diluted primary antibody was pipetted in each well and was incubated for 1 hour at room temperature. The content in the wells was removed and washed for 3 times with 300 μl PBST buffer. PBS was removed from the plates. 100 μl of diluted Peroxidase-AffiniPure Goat Anti-Mouse IgG was added in each well and incubated for 1 hour at 37° C. The content in the wells was removed and the wells were washed for 3 times with 300 μl PBST. 100 μl of TMB substrate solution was added to the wells. After sufficient color development, 100 μl of stop solution was added to the wells to terminate the reaction. Read the absorbance (OD: 450) of each well with a microplate reader and the data were analyzed.

[11] = biological target: T2, human TrkA on CellSensor TrkA-NFAT-bla …; assay: FACS on CellSensor TrkA-NFAT-bla CHO-K1 cells (human TrkA), APC goat anti-mouse IgG
Method: (§2) The ELISA-positive antibody producing clones were further verified by fluorescence-activated cell sorting (FACS) using a conventional method. Briefly, CellSensor® TrkA-NFAT-bla CHO-K1 cells (cells overexpressing human TrkA) were stained with anti-TrkA antibody in U-bottom 96-well plates. The cells were resuspended to 2×10⁶ cells/ml in ice cold PBS. The diluted solutions of primary and secondary antibodies were prepared, and 100 μl of the diluted primary antibody was added in each well, and incubated for 1 hours at 4° C. in the dark. The cells were washed for 2 times by centrifugation at 2500 rpm for 3 min and resuspended in ice cold PBS. The APC Goat anti-Mouse IgG was diluted in cold PBS at the […] and then the cells were resuspended in 100 μl of this solution. The cells were washed for 2 times by centrifugation at 2500 rpm for 3 min and resuspended in 100 μl ice cold PBS. The cell suspension was stored immediately at 4° C. in the dark. The cells were analyzed on the flow cytometer as soon as possible.

[12] = biological target: T2, human TrkA on CellSensor TrkA-NFAT-bla …; assay: FACS on CellSensor TrkA-NFAT-bla CHO-K1 cells (human TrkA), APC goat anti-mouse IgG; y axis without label
Method: as §2

[13] = biological target: T1, extracellular domain (ECD) of human …; assay: affinity after affinity maturation; method not stated in Example 5
[14] = biological target: T1, extracellular domain (ECD) of human …; assay: affinity after affinity maturation; method not stated in Example 5; measured in the affinity maturation series of Example 5, not the humanization series of the 11th table

T1 sequence (P04629 33-423): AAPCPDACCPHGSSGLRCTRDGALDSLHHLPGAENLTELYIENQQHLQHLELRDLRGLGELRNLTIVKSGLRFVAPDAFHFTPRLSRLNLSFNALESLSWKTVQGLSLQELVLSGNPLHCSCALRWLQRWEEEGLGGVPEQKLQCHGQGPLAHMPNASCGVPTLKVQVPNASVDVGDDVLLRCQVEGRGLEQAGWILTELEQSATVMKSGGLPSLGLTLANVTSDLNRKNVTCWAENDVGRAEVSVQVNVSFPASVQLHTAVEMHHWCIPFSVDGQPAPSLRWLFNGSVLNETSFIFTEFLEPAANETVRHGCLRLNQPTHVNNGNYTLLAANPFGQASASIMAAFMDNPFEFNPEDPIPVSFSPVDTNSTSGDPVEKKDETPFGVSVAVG
T2 sequence (P04629 33-796 limits assumed, form in doubt): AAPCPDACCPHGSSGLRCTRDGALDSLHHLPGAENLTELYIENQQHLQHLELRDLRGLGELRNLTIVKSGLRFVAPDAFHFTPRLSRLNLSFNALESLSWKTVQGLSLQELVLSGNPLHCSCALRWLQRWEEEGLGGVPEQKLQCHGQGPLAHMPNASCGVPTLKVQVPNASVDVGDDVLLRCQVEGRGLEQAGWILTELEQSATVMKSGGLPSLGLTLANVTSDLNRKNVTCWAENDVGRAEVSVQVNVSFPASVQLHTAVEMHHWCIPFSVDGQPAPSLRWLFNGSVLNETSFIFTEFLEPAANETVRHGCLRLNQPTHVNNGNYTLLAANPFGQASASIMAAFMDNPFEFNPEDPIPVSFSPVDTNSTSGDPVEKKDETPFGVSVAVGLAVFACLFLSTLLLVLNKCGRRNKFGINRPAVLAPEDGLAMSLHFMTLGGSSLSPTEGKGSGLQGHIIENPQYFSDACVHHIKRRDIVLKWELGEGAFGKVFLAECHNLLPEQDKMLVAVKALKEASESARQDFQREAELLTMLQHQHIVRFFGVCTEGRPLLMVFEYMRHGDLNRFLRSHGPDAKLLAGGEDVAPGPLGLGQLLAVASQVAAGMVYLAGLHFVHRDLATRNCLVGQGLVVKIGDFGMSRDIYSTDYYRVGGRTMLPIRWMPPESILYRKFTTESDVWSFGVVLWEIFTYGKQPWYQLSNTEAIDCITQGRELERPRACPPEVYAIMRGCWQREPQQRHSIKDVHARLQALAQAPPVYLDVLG

| Binder | IC50 in NFAT assay [2] [nM] | Top; inhibition of NGF-induced TrkA activation in TrkA-NFAT-bla CHO-K1 reporter cells [3] [Response Ratio] | EC50 [4] [µg/mL] | Kd [5] [nM] | koff [5] [s⁻¹] | kon [5] [M⁻¹ s⁻¹] | Top; inhibition of NGF-induced TrkA activation in TrkA-NFAT-bla CHO-K1 reporter cells [6] [Response Ratio] | Kd [7] [nM] | koff [7] [s⁻¹] | kon [7] [M⁻¹ s⁻¹] | EC50 [8] [µg/mL] | Kd [9] [nM] | koff [9] [s⁻¹] | kon [9] [M⁻¹ s⁻¹] | further results |
| --- | --- | --- | --- | --- | --- | --- | --- | --- | --- | --- | --- | --- | --- | --- | --- |
| B1 |  |  |  |  |  |  |  |  |  |  |  |  |  |  | binding result [1]: binds |
| B2 | ~0.604 | 1.1 | ~0.198 | 4.84 | 0.00098 | 203000 |  |  |  |  |  |  |  |  |  |
| B3 |  |  |  | 3.07 | 0.000634 | 207000 | 1.02 | 3.07 | 0.000634 | 207000 | ~0.142 | 2.34 | 0.000524 | 224000 | IC50 in NFAT antagonistic assay [2]: ~0.345 nM |
| B4 | 0.404 | 0.796 |  |  |  |  |  |  |  |  |  |  |  |  | EC50 [10]: 1.07 nM; Top [10]: 1.94 OD450; EC50 [11]: 0.473 µg/mL; Top [12]: 173000 |
| B5 |  | 1.04 | 0.157 | 1.79 | 0.000603 | 337000 |  | 3.62 | 0.000827 | 229000 |  |  |  |  | EC50 (so labelled in the drawn table; a falling inhibition curve, the text calls this value IC50); inhibition of NGF-induced TrkA activation in TrkA-NFAT-bla CHO-K1 reporter cells [3]: 0.793 nM; koff [13]: 0.000665 s⁻¹; kon [13]: 219000 M⁻¹ s⁻¹; Kd [14]: 3.04 nM |
| B6 |  |  |  | 5.33 | 0.00114 | 214000 | 1.1 | 2.8 | 0.000761 | 272000 | 0.112 | 4.06 | 0.00069 | 170000 | IC50; inhibition of NGF-induced TrkA activation in TrkA-NFAT-bla CHO-K1 reporter cells [6]: 1.12 nM |
